Measured values as given in PMC7885909 (bioRxiv, 2021).
Where a chain is given by its changes, count along the chain named.

B1: ab017 IgG (antibody, V domains shown)
VH: not shown
VL: QSVLTQPASVSGSPGQSITISCTGTSSDVGGYNYVSWYQQHPGKAPKLMIYDVSNRPSGVSNRFSGSKSGNTASLTISGLQAEDEADYYCSSYTSSSSVVFGGGTKLTVL
B2: ab114 IgG (antibody, V domains shown)
VH: QVQLVQSGGGVVQPGRSLRLSCAASGFTFSSYGMHWVRQAPGKGLEWVAVIWYDGSNKYYADSVKGRFTISRDNSKNTLYLQMNSLRAEDTAVYYCARDVSSGWSPGDFDYWGQGTLVTVSS
VL: B1 VL with D52E, S98T, V99Y, G103T, L107V
B3: ab109 IgG (antibody, V domains shown)
VH: QVQLVQSGGGVVQPGRSLRLSCAASGFTFSSYAMHWVRQAPGKGLEWVAVISYDGSNKYYADSVKGRFTISRDNSKNTLYLQMNSLRAEDTAVYYCARDQEYYDILTGASGGFDYWGQGTLVTVSS
VL: not shown
B4: ab072 IgG (antibody, V domains shown)
VH: not shown
VL: QSALTQPASVSGSPGQSITISCTGTSSDVGGYNYVSWYQQHPGKAPKLMIYDVSNRPSGVSNRFSGSKSGNTASLTISGLQAEDEADYYCSSYTSSSTLVVFGTGTKVTVL
B5: ab007 IgG (antibody, V domains shown)
VH: QVQLVQSGAEVKKPGSSVKVSCKASGGTFSSYAISWVRQAPGQGLEWMGGIIPIFGTANYAQKFQGRVTITADESTSTAYMELSSLRSEDTAVYYCASPHCSSTSCLYHYYYYGMDVWGQGTTVTVSS
VL: not shown
B6: ab119 IgG (antibody, V domains shown)
VH: EVQLVESGGGLIQPGGSLRLSCAASGFTVSSNYMSWVRQAPGKGLEWVSVIYSGGSTYYADSVKGRFTISRDNSKNTLYLQMNSLRAEDTAVYYCARDLRGITWGQGTLVTVSS
VL: not shown
B7: ab072 Fab (Fab, V domains shown)
VH: not shown
VL: B4 VL

molecular target: RaTG13 RBD (bat CoV RaTG13, GenBank MN996532.2, UniProt A0ABF7PLN6); assay: ELISA

Row | Binder | binding result
1 | B1 | binds
2 | B2 | binds
3 | B3 | binds
4 | B4 | binds

molecular target: SHC014 RBD (bat CoV SHC014, GenBank QJE50589.1, UniProt A0A6M3U4F6); assay: ELISA

Row | Binder | binding result
5 | B1 | binds
6 | B2 | binds
7 | B3 | binds
8 | B4 | binds

molecular target: SARS-CoV RBD (SARS-CoV, GenBank ABD72970.1, UniProt Q202E5); assay: ELISA

Row | Binder | binding result
9 | B1 | binds
10 | B2 | binds
11 | B3 | binds
12 | B4 | binds

molecular target: T1, SARS-CoV-2 receptor binding domain (RBD), wild type, monomeric (SARS-CoV-2, GenBank MN975262.1 (wild …, UniProt A0A679G9E9)); assay: ELISA

Row | Binder | binding result
13 | B1 | binds
14 | B2 | binds
15 | B5 | binds
16 | B3 | binds
17 | B4 | binds
18 | B6 | binds

molecular target: WIV1 RBD (bat SARS-like CoV WIV1, GenBank …, UniProt U5WI05); assay: ELISA

Row | Binder | binding result
19 | B1 | binds
20 | B2 | binds
21 | B3 | binds
22 | B4 | binds

molecular target: T1, SARS-CoV-2 receptor binding domain …; assay: BLI

Row | Binder | binding result
23 | B7 | binds
